Source: paper doi:10.1101/2021.08.18.456755

Legend:
[1] = target: (His)6-tagged Pf-Ubc9 (Plasmodium falciparum); experiment: pull-down
[2] = target: Hs-Ubc9 (human E2 conjugating enzyme Ubc9), untagged (human) (UniProt P63279); experiment: ITC
[3] = target: Pf-Ubc9 (Plasmodium falciparum E2 conjugating enzyme), untagged (Plasmodium falciparum); experiment: ITC
[4] = target: (His)6-tagged Hs-Ubc9 (human) (UniProt P63279); experiment: pull-down
[5] = target: Hs-Ubc9 (human E2 conjugating enzyme Ubc9), untagged (human) (UniProt P63279)
[6] = target: Pf-SUMO D90A mutant, untagged (ITC, SPR, NMR) (Plasmodium falciparum); experiment: SPR

Substance: Hs-SUMO1 as prepared for pull-down and SUMOylation assays (GST-tagged preparation) (from UniProt P63165 1-97) (natural protein)
- relative binding affinity (quantified pull-down) [1]: 12%

Substance: Pf-SUMO (Plasmodium falciparum SUMO, mature form Pf-SUMO-GG), untagged (natural protein)
- Kd [2]: 27.4 µM
- Kd [3]: 4.05 µM

Substance: Pf-SUMO D68A mutant (pull-down preparation) (natural protein)
- reduction of binding against Pf-SUMO wild type (quantified pull-down) [4]: 90%

Substance: Pf-SUMO D68K mutant (pull-down preparation) (natural protein)
- reduction of binding against Pf-SUMO wild type (quantified pull-down) [4]: 90%

Substance: Pf-SUMO D90A mutant (pull-down preparation) (natural protein)
- reduction of binding against Pf-SUMO wild type (quantified pull-down) [4]: 90%

Substance: Pf-SUMO D90A mutant, untagged (ITC, SPR, NMR) (natural protein)
- Kd [3]: 2.5 µM
- fold change of the dissociation constant against the wild type [5]: 4 fold

Substance: Pf-SUMO D90K mutant (pull-down preparation) (natural protein)
- reduction of binding against Pf-SUMO wild type (quantified pull-down) [4]: 90%

Substance: Pf-SUMO wild type as prepared for pull-down and SUMOylation assays (GST-tagged preparation) (natural protein)
- relative affinity (quantified pull-down) [4]: 67%

Substance: Pf-Ubc9 (Plasmodium falciparum E2 conjugating enzyme), untagged
- Kd [6]: 3.02 µM
